target: T1, human GRP receptor (human, UniProt P30550 1-384); assay: binding affinity (IC50); assay format, labelled ligand and receptor source not described
T1 construct: also called Gastrin-releasing peptide (GRP) receptor; GRP receptors
T1 sequence (P30550 whole entry): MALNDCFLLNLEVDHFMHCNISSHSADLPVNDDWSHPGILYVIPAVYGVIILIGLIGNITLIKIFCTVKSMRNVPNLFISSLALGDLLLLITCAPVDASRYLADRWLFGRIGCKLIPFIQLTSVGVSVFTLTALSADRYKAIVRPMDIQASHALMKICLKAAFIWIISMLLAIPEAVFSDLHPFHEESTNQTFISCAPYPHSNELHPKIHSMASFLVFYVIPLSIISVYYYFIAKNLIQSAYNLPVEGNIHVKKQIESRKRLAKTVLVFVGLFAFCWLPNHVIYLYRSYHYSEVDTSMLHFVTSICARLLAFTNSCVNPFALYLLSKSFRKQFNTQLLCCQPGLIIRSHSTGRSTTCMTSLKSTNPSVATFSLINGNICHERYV

Row | IC50 [nM] | Binder
1 | 2.3 | RXQWAVGHXL (not fully specified; N-terminal 3-cyano-4-fluoro-benzoyl group (F is 18F or 19F); Ava (5-aminovaleric acid) spacer; NMeGly (N-methylglycine); His(3Me) (3-methylhistidine); Sta (statine); C-terminal amide, Synthetic bombesin analog) [4F,3CN-Bnz-Arg-Ava-Gln-Trp-Ala-Val-NMeGly-His(3Me)-Sta-Leu-NH2]
2 | 0.3 to 1.8 | RXQWAVGHXL (not fully specified; N-terminal 3-trifluoromethyl-4-fluoro-benzoyl group (F is 18F or 19F); Ava (5-aminovaleric acid) spacer; NMeGly (N-methylglycine); Sta (statine); C-terminal amide, Synthetic bombesin analog) [3-CF3,4-F-Benzoyl-Arg-Ava-Gln-Trp-Ala-Val-NMeGly-His-Sta-Leu-NH2]
3 | 1 | RXQWAVGHXL (not fully specified; N-terminal 3-cyano-4-fluoro-benzoyl group (F is 18F or 19F); Ava (5-aminovaleric acid) spacer; His(3Me) (3-methylhistidine); Sta (statine); C-terminal amide, Synthetic bombesin analog) [3-CN,4-F-Benzoyl-Arg-Ava-Gln-Trp-Ala-Val-Gly-His(3Me)-Sta-Leu-NH2]
4 | 1.9 to 2.7 | RXQWAVGHXL (not fully specified; N-terminal 3-cyano-4-fluoro-benzoyl group (F is 18F or 19F); Ava (5-aminovaleric acid) spacer; NMeGly (N-methylglycine); Sta (statine); C-terminal amide, Synthetic bombesin analog) [3-CN,4-F-Benzoyl-Arg-Ava-Gln-Trp-Ala-Val-NMeGly-His-Sta-Leu-NH2]

From patent US20090317326A1 (published 2009)
